B1: monoclonal antibody (mAb) 4C5 (antibody, V domains shown)
VL: ELVMTQSPSSMYASLGERVTITCKASQDINSYLSWFQQKPGKSPKTLIYRANRLVDGVPSRFSGSGSGQDYSLTINSLEYEDMGIYYCLQYDEFPRLTFGAGTRLELKR
B2: recombinant 4C5 (antibody, V domains shown)
VL: B1 VL
B3: human-mouse chimeric 4C5 antibody (antibody, V domains shown)
VL: B1 VL

What follows are binders tested against surface HSP90 on MDAMB453 breast cancer cells (human, UniProt P07900 2-732) (assay: cell-based or functional assay).
With B1 the “inhibition of wound closure, MDAMB453 in vitro wound healing assay, 200 µg/ml, 48 hours” value (from here on “inhibition of wound closure, MDAMB453”) was 55.3%. With B2 the “inhibition of wound closure, MDAMB453” value was 46.5%. For B3, the “inhibition of wound closure, MDAMB453” value was 51.2%.

From patent publication US20160075771A1 (ZESTAGEN S A, published 2016)
